Among the targets are RelBs^NTD Y279A (Bacillus subtilis); RelBs^NTD K290G (Bacillus subtilis); DarB^E34R (Bacillus subtilis, UniProt O31698 1-147, E34R); DarB E74G/R75G (Bacillus subtilis, UniProt O31698 1-147, E74G | R75G).
What all share (experiment): ITC

B1: Bacillus subtilis DarB (natural protein)
chain: MISLQSDQLLEATVGQFMIEADKVAHVQVGNNLEHALLVLTKTGYTAIPVLDPSYRLHGLIGTNMIMNSIFGLERIEFEKLDQITVEEVMLTDIPRLHINDPIMKGFGMVINNGFVCVENDEQVFEGIFTRRVVLKELNKHIRSLNK
The term Kd denotes the concentration at which binding is half-saturated. Low values mean tighter binding, high ones weaker binding. Consider B1, for which the Kd in the assay with RelBs^NTD Y279A came out at 45.1 µM; with RelBs^NTD K290G, 4 µM.

B2: Bacillus subtilis Rel N-terminal domain region (RelBs^NTD; residues 1 to 373) (domain or fragment)
chain: not shown
In the case of B2, the Kd with DarB^E34R was determined as 10.6 µM; with DarB E74G/R75G, 8.9 µM.

(Values after article PMC9848473 (2023).)
